Results from article PMC4352251, “The VieB auxiliary protein negatively regulates the VieSA signal transduction system in Vibrio cholerae” (BMC Microbiology, 2015).

B1: VieA-His6 (response regulator VieA) (natural protein)
chain: MKIMIVEDDRIQATSLKLKLRQLGLDDVILAENGFAALELCNKVGIDLMFCDIRMPQMDGISLLSQLSLQAPKLGVVILSAVEDTILELTHNMCSLAGFAYVDRLPKPYEVEDLQRVVEGFQKQTEPETSHKPAITLTCDEIEQAFLHDHIFNYYQPQFDFRSGAMVGVEALVRYEHPTHGMLSPAVFLPLIEQCGLHEKLFLTVLEKSVSALASIGADLQLSVNISQRNLQHSICDPILAICERYGFPASKLTLEMTEHEVYNGTPTSLANLARLRMYGVGLSIDDFGTGYASLGQLAQLPFTELKIDRSFVHDLATNYKHQQLTNMCLLLAQSLGLHCVVEGVENEETWQYLRQLGVDTCQGYYAAKPMPIAQLSELYTKNRRQCLGCQSMDDGWQILLVDNHMLSATALQKVLNKEENVSKVFVAQDIEQTLHKLRDLPINLLVVESRFLSTISPAAFHELLEPYYRGALLVLHDGLTAEAQEDEPKAIVVKANTLMETSSRILLQAQQSNVRPQAQQEELAQLSERELTVAKMLVEGLTNKEIALQLDINQKTVSTYKTRIMTKLGIKSAMELVRFVTLK
notes: not shown: His6, C-terminal, kept
B2: VieB (wild type, His6 tag removed) (natural protein)
chain: MAVPTFAELKVLIIDDAPIVIASLRSMLLKLGFTDPNIVWSKSPRAAVFMAGRQRFDIFICDYNFGKGLNGKQVFEELKHYKLIKQDAVFVLVTGENSAYVVHSILELKPDEYILKPFNIMTLQERLTNAISRKHALKALYQAERDGDAELGLSLCDELEPFYNDYYFVIQKFRGEFLTQLRRFDHAREVYLETLEHKDFDWAKIGLANALKQTGRQVEATQVIQELLASAPNNVRARVEAASISLCNNSIPEAIHHLQVANQIVPGHSEREWVLANLCLSVGDGASALERYRLYVEINKETYRNNHQMHLNFIRTLLYAARQAESEQRDLWVQEAKSILKGLYDKGQHEDLLAQLELVAAHLAMEEGEFGVSVEILNKIYRAKPFELFEDRYHFTWLLNVMGFDSEFAKCISWCNGTLLNQETDIVLESKVALAKALKEANQEKLQWLEQRYHALCNKQQTIDSLLAIYIEILEKCPTLRTVCMKVVTIFSRYWPTALTESEAERLLKSCHRTIRQLMNEEELQQAQYAELYRKALTFRSRYRLQRTESVEA

Assays:
[1] = biological target: VieS-C (untagged cytoplasmic portion of the sensor kinase VieS) (UniProt O68317); test: SEC-MALS; Superose12 10/300 GL in Gel Filtration Buffer (25 mM Tris pH 7.5, 100 mM KCl, 1 mM DTT, 5% glycerol); column at 4°C, light scattering at 25°C; self-association of each protein
[2] = biological target: the molecule itself; test: as above
[3] = biological target: VieS-C (untagged cytoplasmic portion of the sensor kinase VieS) (UniProt O68317); test: composition-gradient MALS (CG-MALS)

Molecule | stoichiometry N [1] | stoichiometry N [2] | Kd [3] [nM] | stoichiometry N (VieA-His6 dimer per VieS-C dimer) [3] | stoichiometry N (VieB monomer per VieS-C dimer) [3]
VieS-C (untagged cytoplasmic portion of the sensor kinase VieS) (from UniProt O68317 1-1146) (domain or fragment) | 2 |  |  |  | 
B1 |  | 2 | 1380 | 1 | 
B2 |  |  | 467 |  | 1
